Eight molecules from PMC1277818, “Substrate specificity analysis of protein kinase complex Dbf2-Mob1 by peptide library and proteome array screening” (BMC Biochemistry, 2005) can be followed below.

Sequences and labels used below:
T1: FHHDbf2-H6Mob1TM9 (Saccharomyces cerevisiae, UniProt P22204+P40484)
T1 construct: made in house; host or cells: Hi5 insect cells (baculovirus)
T1 sequence (P22204 1-572): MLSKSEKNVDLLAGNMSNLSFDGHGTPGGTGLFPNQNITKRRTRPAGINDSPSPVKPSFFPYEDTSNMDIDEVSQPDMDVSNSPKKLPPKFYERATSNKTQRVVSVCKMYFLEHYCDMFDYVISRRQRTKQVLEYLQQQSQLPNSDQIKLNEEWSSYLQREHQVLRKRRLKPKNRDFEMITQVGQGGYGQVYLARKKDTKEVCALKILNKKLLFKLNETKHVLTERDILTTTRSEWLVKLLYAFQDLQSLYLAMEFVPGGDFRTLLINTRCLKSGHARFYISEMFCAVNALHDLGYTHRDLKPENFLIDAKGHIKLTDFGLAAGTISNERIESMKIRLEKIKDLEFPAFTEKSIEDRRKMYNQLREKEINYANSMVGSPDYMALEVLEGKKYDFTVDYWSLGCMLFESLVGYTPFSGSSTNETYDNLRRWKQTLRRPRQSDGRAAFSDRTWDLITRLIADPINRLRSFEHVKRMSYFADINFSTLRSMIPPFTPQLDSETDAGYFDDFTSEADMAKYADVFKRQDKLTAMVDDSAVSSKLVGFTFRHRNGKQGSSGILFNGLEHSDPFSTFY
T1 sequence (P40484 1-314 partner): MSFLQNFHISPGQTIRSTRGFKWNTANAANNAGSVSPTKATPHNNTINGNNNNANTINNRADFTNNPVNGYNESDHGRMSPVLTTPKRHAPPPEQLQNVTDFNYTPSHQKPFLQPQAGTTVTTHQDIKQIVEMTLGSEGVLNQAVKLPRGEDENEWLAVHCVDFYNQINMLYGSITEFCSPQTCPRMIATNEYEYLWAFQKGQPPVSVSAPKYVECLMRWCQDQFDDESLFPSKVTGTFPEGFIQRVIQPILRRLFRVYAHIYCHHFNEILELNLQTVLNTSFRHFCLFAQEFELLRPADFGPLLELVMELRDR

B1: YGR264C: GST fusion yeast protein on proteome chip (protein, UniProt P00958 2-751, looked up)
Methionine--tRNA ligase, …: SFLISFDKSKKHPAHLQLANNLKIALALEYASKNLKPEVDNDNAAMELRNTKEPFLLFDANAILRYVMDDFEGQTSDKYQFALASLQNLLYHKELPQQHVEVLTNKAIENYLVELKEPLTTTDLILFANVYALNSSLVHSKFPELPSKVHNAVALAKKHVPRDSSSFKNIGAVKIQADLTVKPKDSEILPKPNERNILITSALPYVNNVPHLGNIIGSVLSADIFARYCKGRNYNALFICGTDEYGTATETKALEEGVTPRQLCDKYHKIHSDVYKWFQIGFDYFGRTTTDKQTEIAQHIFTKLNSNGYLEEQSMKQLYCPVHNSYLADRYVEGECPKCHYDDARGDQCDKCGALLDPFELINPRCKLDDASPEPKYSDHIFLSLDKLESQISEWVEKASEEGNWSKNSKTITQSWLKDGLKPRCITRDLVWGTPVPLEKYKDKVLYVWFDATIGYVSITSNYTKEWKQWWNNPEHVSLYQFMGKDNVPFHTVVFPGSQLGTEENWTMLHHLNTTEYLQYENGKFSKSRGVGVFGNNAQDSGISPSVWRYYLASVRPESSDSHFSWDDFVARNNSELLANLGNFVNRLIKFVNAKYNGVVPKFDPKKVSNYDGLVKDINEILSNYVKEMELGHERRGLEIAMSLSARGNQFLQENKLDNTLFSQSPEKSDAVVAVGLNIIYAVSSIITPYMPEIGEKINKMLNAPALKIDDRFHLAILEGHNINKAEYLFQRIDEKKIDEWRAKYGGQQV
modifications: GST tag
notes: GST fusion yeast protein on proteome chip
B2: YPL211W: GST fusion yeast protein on proteome chip (protein, UniProt Q08962 1-181, looked up)
60S ribosome subunit …: MRQLTEEETKVVFEKLAGYIGRNISFLVDNKELPHVFRLQKDRVYYVPDHVAKLATSVARPNLMSLGICLGKFTKTGKFRLHITSLTVLAKHAKYKIWIKPNGEMPFLYGNHVLKAHVGKMSDDIPEHAGVIVFAMNDVPLGFGVSAKSTSESRNMQPTGIVAFRQADIGEYLRDEDTLFT
modifications: GST tag
notes: as for B1
B3: YDR299W: GST fusion yeast protein on proteome chip (protein, UniProt Q06631 1-534, looked up)
Protein BFR2: MEKSLADQISDIAIKPVNKDFDIEDEENASLFQHNEKNGESDLSDYGNSNTEETKKAHYLEVEKSKLRAEKGLELNDPKYTGVKGSRQALYEEVSENEDEEEEEEEEEEKEEDALSFRTDSEDEEVEIDEEESDADGGETEEAQQKRHALSKLIQQETKQAINKLSQSVQRDASKGYSILQQTKLFDNIIDLRIKLQKAVIAANKLPLTTESWEEAKMDDSEETKRLLKENEKLFNNLFNRLINFRIKFQLGDHITQNEEVAKHKLSKKRSLKELYQETNSLDSELKEYRTAVLNKWSTKVSSASGNAALSSNKFKAINLPADVQVENQLSDMSRLMKRTKLNRRNITPLYFQKDCANGRLPELISPVVKDSVDDNENSDDGLDIPKNYDPRRKDNNAIDITENPYVFDDEDFYRVLLNDLIDKKISNAHNSESAAITITSTNARSNNKLKKNIDTKASKGRKLNYSVQDPIANYEAPITSGYKWSDDQIDEFFAGLLGQRVNFNENEDEEQHARIENDEELEAVKNDDIQIFG
modifications: GST tag
notes: as for B1
B4: YOL104C: GST fusion yeast protein on proteome chip (protein, UniProt Q12366 1-352, looked up)
Non-disjunction protein 1: MSKDNRLASILLQPVASSSGNCTEFHDSKLHTLQEELNFLPLEGVASNVCPPMFRGHKNYVFVLYCLNQVDLVTNLQDSTKRYYPLQIFKDCQLSSLVQKDFSHYFQLSRQKEGEDRNDSDTTLVNVVNSGVSRHRSQLLKMCIIPRICSFDKSNSKTYKLIQEYVNRFETVLTKFGPEKDFTKVYANWSKLIESFNELILHDLLVKWQQWSELTQPNATVHQNIPNVLRELVIKLTQRYFTFQPSYSCSIDEFTTILLNKNALSLLDVFRKPRKYKLNFGLWLDCQNGILIFTNGIVQMADEITSERVKSFVRPAHLLVLEDHSNDEAVKKLMFFTFSAILQCFTDEILNC
modifications: GST tag
notes: as for B1
B5: YML035C: GST fusion yeast protein on proteome chip (protein, UniProt P15274 1-810, looked up)
AMP deaminase: MDNQATQRLNDLSLEPAPSHDEQDGSGLVIDIDQRKIGDEQAGVVVDDETPPLEQQDSHESLAADSRNANFSYHENQQLLENGTKQLALDEHDSHSAILEQPSHSTNCSSSNIAAMNKGHDSADHASQNSGGKPRTLSASAQHILPETLKSFAGAPVVNKQVRTSASYKMGMLADDASQQFLDDPSSELIDLYSKVAECRNLRAKYQTISVQNDDQNPKNKPGWVVYPPPPKPSYNSDTKTVVPVTNKPDAEVFDFTKCEIPGEDPDWEFTLNDDDSYVVHRSGKTDELIAQIPTLRDYYLDLEKMISISSDGPAKSFAYRRLQYLEARWNLYYLLNEYQETSVSKRNPHRDFYNVRKVDTHVHHSACMNQKHLLRFIKHKLRHSKDEKVIFRDGKLLTLDEVFRSLHLTGYDLSIDTLDMHAHKDTFHRFDKFNLKYNPIGESRLREIFLKTNNYIKGTYLADITKQVIFDLENSKYQNCEYRISVYGRSLDEWDKLASWVIDNKVISHNVRWLVQIPRLYDIYKKTGIVQSFQDICKNLFQPLFEVTKNPQSHPKLHVFLQRVIGFDSVDDESKVDRRFHRKYPKPSLWEAPQNPPYSYYLYYLYSNVASLNQWRAKRGFNTLVLRPHCGEAGDPEHLVSAYLLAHGISHGILLRKVPFVQYLYYLDQVGIAMSPLSNNALFLTYDKNPFPRYFKRGLNVSLSTDDPLQFSYTREPLIEEYSVAAQIYKLSNVDMCELARNSVLQSGWEAQIKKHWIGKDFDKSGVEGNDVVRTNVPDIRINYRYDTLSTELELVNHFANFKRTIEEK
modifications: GST tag
notes: as for B1
B6: YKL146W: GST fusion yeast protein on proteome chip (protein, UniProt P36062 1-692, looked up)
Vacuolar amino acid …: MNGKEVSSGSGRTQSNNNKKNNNGGSTGISHASGSPLTDGNGGNSNGNSRSRSRSRKSSGTTGGLLKKPPLLVNNEAVHASVPDASHTSCNNGTLEVSINNPEPHVVDAVARHLIRNPSNSLQLQGGDITRDLYKWTNDHPSSPSQYQYPSQPALSTSIPSQAPSFSNRKRSMSFSAASIASSSHLNNNSEANGNPLAAIGLAPAPMTHEEIRAPGGFRRSFIIQKRRKHNVDAPIPNFFTRNFIEFLTLYGHFAGEDLSEEEEEEEETEEEPEEEALETESTQLVSREHGRHPHKSSTVKAVLLLLKSFVGTGVLFLPKAFHNGGWGFSALCLLSCALISYGCFVSLITTKDKVGVDGYGDMGRILYGPKMKFAILSSIALSQIGFSAAYTVFTATNLQVFSENFFHLKPGSISLATYIFAQVLIFVPLSLTRNIAKLSGTALIADLFILLGLVYVYVYSIYYIAVNGVASDTMLMFNKADWSLFIGTAIFTFEGIGLLIPIQESMKHPKHFRPSLSAVMCIVAVIFISCGLLCYAAFGSDVKTVVLLNFPQDTSYTLTVQLLYALAILLSTPLQLFPAIRILENWTFPSNASGKYNPKVKWLKNYFRCAIVVLTSILAWVGANDLDKFVSLVGSFACIPLIYIYPPLLHYKASILSGTSRARLLLDLIVIVFGVAVMAYTSWQTIKMWSQ
modifications: GST tag
notes: as for B1
B7: YIL010W: GST fusion yeast protein on proteome chip (protein, UniProt P40553 1-215, looked up)
Peroxiredoxin DOT5: MGEALRRSTRIAISKRMLEEEESKLAPISTPEVPKKKIKTGPKHNANQAVVQEANRSSDVNELEIGDPIPDLSLLNEDNDSISLKKITENNRVVVFFVYPRASTPGCTRQACGFRDNYQELKKYAAVFGLSADSVTSQKKFQSKQNLPYHLLSDPKREFIGLLGAKKTPLSGSIRSHFIFVDGKLKFKRVKISPEVSVNDAKKEVLEVAEKFKEE
modifications: GST tag
notes: as for B1
B8: YGL105W: GST fusion yeast protein on proteome chip (protein, UniProt P46672 1-376, looked up)
tRNA-aminoacylation cofactor …: MSDLVTKFESLIISKYPVSFTKEQSAQAAQWESVLKSGQIQPHLDQLNLVLRDNTFIVSTLYPTSTDVHVFEVALPLIKDLVASSKDVKSTYTTYRHILRWIDYMQNLLEVSSTDKLEINHDLDLPHEVIEKKKKAPAGGAADAAAKADEDVSKKAKKQDHPRGKPDEETLKKLREEAKAKKAAKKAANAKQQQEQQNKAPEKPKPSAIDFRVGFIQKAIKHPDADSLYVSTIDVGDEEGPRTVCSGLVKHFPLDAMQERYVVVVCNLKPVNMRGIKSTAMVLCGSNDDKVEFVEPPKDSKAGDKVFFEGFGDEAPMKQLNPKKKIWEHLQPHFTTNDGLEVIFKDEEEKDHPVRKLTNAKGESFKVASIANAQVR
modifications: GST fusion
notes: as for B1

This assay addresses T1, FHHDbf2-H6Mob1TM9. Put plainly: Yeast proteome chip assay. The following applies: Table 3; GST fusion proteins on proteome chip, [γ-33P]ATP, chips in duplicate, computer analysis. The class given is biochemical. On the procedure: The relatively low sequence complexity of the Dbf2 phosphorylation motif diminished the power of using genome-wide bioinformatics screens to identify putative substrates. Accordingly, we carried out a proteome array screen to identify putative yeast substrates. […] After taking into account the proteins phosphorylated in the negative controls, 67 proteins were determined to be putative Dbf2-Mob1 substrates (Table 3).
Yeast proteome microarrays were prepared as previously described. Overexpressed GST-tagged yeast proteins were purified from ~4,400 yeast strains and spotted on slides. To determine the optimal amount of kinase to use for probing proteome chips, we performed trial assays as described (J. Ptacek et al., submitted). […] The full proteome array was probed with 4 μl ^FHHDbf2-^H6Mob1^TM9 in 200 μl of DKB supplemented with [γ-^33P]ATP. As a control, ^FHHDbf2(N305A)-^H6Mob1^TM9 was used to probe the proteome array. […] To control for autophosphorylated proteins, the proteome array was probed with 200 μl of DKB supplemented with [γ-^33P]ATP. Proteome chips were assayed in duplicate in each case. Data analysis was performed as described (J. Ptacek et al., submitted). Briefly, signals were analyzed by a computer algorithm designed to normalize background and identify signals as positive if 3 of 4 spots (each protein is spotted twice on each slide and each kinase or control was tested on 2 slides) were 2 standard deviations above background and the fourth spot was 1.5 standard deviations above background.
For B1, the “Slide Signal (after normalization)” value is on record as 0.1328. The figure for B2 is 0.4521. Take B3: the “Slide Signal (after normalization)” value worked out at 0.47. On to B4, for which the “Slide Signal (after normalization)” value was 0.3611. The figure for B5 is 0.1384; for B6 it is 0.3592; for B7 it is 0.2606. As for B8, the “Slide Signal (after normalization)” value is 0.1332.
